Measurements as given in US20240400671A1 (published 2024).

What was measured:
ABM126 = test: binding affinity
ABM126.4 = test: binding affinity
ABM109.2 = test: binding affinity
mouse IL-25 (NS0) = test: SPR
Mouse (NSO) = test: binding affinity
Cyno Monkey (HEK) = test: binding affinity
ABM 109 = test: SPR
ABM 109.2 = test: SPR
[1] = biological target: T1, recombinant human IL-25 (R&D Systems) (human, UniProt Q9H293 33-177); test: SPR
T1 chain: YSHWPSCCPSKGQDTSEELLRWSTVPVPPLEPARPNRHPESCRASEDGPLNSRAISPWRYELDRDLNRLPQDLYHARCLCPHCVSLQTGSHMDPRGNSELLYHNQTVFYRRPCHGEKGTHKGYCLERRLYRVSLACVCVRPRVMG

[2] = biological target: T1, recombinant human IL-25 (R&D Systems); test: binding affinity
hABM125.9 = test: SPR
hABM125.10 = test: SPR

B1: Human (HEK) (ligand)
chain: T1 chain
Kd (ABM126): 0.043 nM | Kd (ABM126.4): 0.024 nM | Kd (ABM109.2): 1 nM

B2: ABM125 (antibody, V domains shown)
VH: QVTLKVSGPGILQPSQTLSLTCSFSGFSLNTSGMGVGWIRQPSGKGLEWLAHIWWDDVKRYNPALKSRLTISKDTSGSQVFLKIASVDTADTATYYCARTLPHFFDYWGQGTTLTVSS
VL: DIQMTQSPAIMSASPGEKVTISCRASSSVSYMYWYQQKSGSSPKPWIYRTSNLASGVPARFSGSGSGTSYSLTISSMEAEDAATYYCKQYHSYPPTWTFGGGTKLEIKR
modifications: N-glycosylation site in heavy chain CDR1 created by S29N, confirmed biophysically
Kd (mouse IL-25 (NS0)): 0.0073 nM | Kd (Mouse (NSO)): 0.168 nM | Kd (Cyno Monkey (HEK)): 0.17 nM

B3: human IL-25 (ligand)
chain: T1 chain
Kd (ABM 109): 0.004 nM | Kd (ABM 109.2): 0.024 nM

B4: ABM125 (Chimera) (antibody, V domains shown)
VH: B2 VH
VL: B2 VL
modifications: N-glycosylation site in heavy chain CDR1 created by S29N, confirmed biophysically
Kd [1]: 0.0053 nM | Kd [2]: 0.128 nM

B5: ABM125.38 (antibody, V domains shown)
VH: QVTLKESGPTLVKPTQTLTLTCTFSGFSLSTSGMGVGWIRQPPGKALEWLAHIWWDDVKRYNPSLKSRLTITKDTSGSQVVLTMTNMDPVDTATYYCARTLPHFHDYWGQGTTLTVSS
VL: DIQMTQSPSTLSASVGDRVTITCRASSSVSYMYWYQQKPGKAPKPLIYRTSNLASGVPSRFSGSGSGTEYTLTISSLQPDDFATYYCKQYHSYPPTWTFGGGTKVEIKR
Kd (Mouse (NSO)): 0.096 nM | Kd (Cyno Monkey (HEK)): 0.235 nM

B6: LNR125.38 (antibody, V domains shown)
VH: B5 VH
VL: B5 VL
Kd [2]: 0.051 nM

B7: human IL-25 (HEK) (ligand)
chain: T1 chain
Kd (hABM125.9): 0.061 nM | Kd (hABM125.10): 0.374 nM
